The target of the assay is T1, lysozyme c (Lzm-S) (Canis lupus familiaris, UniProt P81709).
T1 construct: Lzm-S was purified in a manner described by Grobler et al (14); from tissue
T1 sequence (P81709 1-130): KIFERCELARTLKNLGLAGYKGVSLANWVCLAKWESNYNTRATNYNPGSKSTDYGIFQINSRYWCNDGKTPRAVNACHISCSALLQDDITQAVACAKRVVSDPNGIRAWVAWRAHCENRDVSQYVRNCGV
Description: Effect of enzyme treatment (of Lzm-S or of the trabeculae) on Lzm-S's depressant effect in right ventricular trabecular preparation. It is filed as cell-based, dog. The procedure: In subsequent experiments, the objective was to determine whether pretreatment of Lzm-S with the proteolytic enzyme proteinase-K reduced the extent to which myocardial depression developed in the in vitro preparation (7). Proteinase-K (attached to beaded agarose; Sigma Chemical, St Louis, Mo.) was added to the pure Lzm-S preparation. The effects of proteinase-K treated and nontreated Lzm-S on isometric tension were compared between the samples. Since proteinase-K is a non-specific proteolytic enzyme, a specific competitive inhibitor of lysozyme, TAC (chitotriose) was subsequently examined to determine whether it prevented the depression in isometric tension observed in the in vitro preparation (16,17).
Regardless of the type of carbohydrate structure to which Lzm-S may bind, it is possible to deglycosylate the carbohydrate structure by means of exoglycosidases in which a specific sugar residue is removed from the terminal end of the carbohydrate tree (47). […] In group 2, the trabeculae were initially bathed in sialidase (60 μl; 5 U/ml) for two hours to remove any N-acetylneuramic acid (NeuNAc) residues, after which the effect of Lzm-S was determined (all kits from Prozyme, San Leandro, Calif.; kit GE 23; Sialidase A). […]

B1: Proteinase K: nonspecific proteolytic enzyme attached to beaded agarose (protein, UniProt P06873 106-384, looked up)
Proteinase K: AAQTNAPWGLARISSTSPGTSTYYYDESAGQGSCVYVIDTGIEASHPEFEGRAQMVKTYYYSSRDGNGHGTHCAGTVGSRTYGVAKKTQLFGVKVLDDNGSGQYSTIIAGMDFVASDKNNRNCPKGVVASLSLGGGYSSSVNSAAARLQSSGVMVAVAAGNNNADARNYSPASEPSVCTVGASDRYDRRSSFSNYGSVLDIFGPGTSILSTWIGGSTRSISGTSMATPHVAGLAAYLMTLGKTTAASACRYIADTANKGDLSNIPFGTVNLLAYNNYQA
modifications: attached to agarose beads
With B1, the “Effect of enzyme treatment on Lzm-S's depressant activity” value is given as “reduction in depressant activity”.

Source of the values: patent publication US7402575B2, “Methods of treating inflammation” (priority 2003, dated 2008).
